This note sets out measurements from paper PMC13580404 (Molecular cell, 2026).

Test in all cases: ITC; RPN13 Pru in the cell (15.6, 20.57 or 16 μM), RPN2 (940–953) in the syringe; 25°C; 20 mM sodium phosphate, 50 mM NaCl, pH 6.0, with 10 mM βME (reducing) or without (non-reducing); one-site fit
Common to all, as to conditions: both partners purified

In experiment [1] the target is T1, oxidized RPN13 Pru (1–150) (UniProt Q16186 1-150, oxidized with 0.05% H2O2; the residues are not told).
T1 construct: RPN13 Pru domain, residues 1-150; also called oxi RPN13^Pru; oxi-RPN13^Pru; source: E. coli BL21(DE3) pLysS, purified; oxidized with 0.05% H2O2 on ice for 10 min; not shown: His6, N-terminal, cleaved

In experiment [2] the target is T2, RPN13 Pru (1–150), reduced (UniProt Q16186 1-150).
T2 construct: also called RPN13 (1–150); redu RPN13^Pru; source: E. coli BL21(DE3) pLysS, purified (Talon resin, PreScission cleavage, Superdex 75); not shown: His6, N-terminal, cleaved

The target in experiment [3] is T3, oxidized RPN13 Pru (1–150) after incubation with TXNL1^Trx (UniProt Q16186 1-150, oxidized with 0.05% H2O2, then restored by a 3-fold molar excess of TXNL1 Trx; the residues are not told).
T3 construct: RPN13 Pru domain, residues 1-150; source: E. coli BL21(DE3) pLysS, purified; not shown: His6, N-terminal, cleaved
T3 sequence (Q16186 1-150): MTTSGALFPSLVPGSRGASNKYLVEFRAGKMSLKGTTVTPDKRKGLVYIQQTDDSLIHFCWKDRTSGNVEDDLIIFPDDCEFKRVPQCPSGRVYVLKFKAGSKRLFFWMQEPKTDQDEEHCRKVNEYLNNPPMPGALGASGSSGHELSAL

T2 sequence (Q16186 1-150): as above
T1 sequence (Q16186 1-150): as above

B1: RPN2 (940–953) (peptide, UniProt Q99460 940-953, looked up)
chain: QEPEPPEPFEYIDD
notes: Eluted from the resin as GST-RPN2 (940–953); also called RPN2 peptide; GST-RPN2 (940–953); source: E. coli BL21(DE3) pLysS, purified (glutathione resin, eluted with reduced glutathione, Superdex 75)
On to B1, for which the dissociation constant Kd in experiment [1] worked out at 40 ± 15.3 nM; in experiment [2], 12.4 ± 5.29 nM; in experiment [3], 18.9 ± 5.7 nM.
